Results taken from article PMC3485151, “A Δ38 Deletion Variant of Human Transketolase as a Model of Transketolase-Like Protein 1 Exhibits No Enzymatic Activity” (PLoS ONE, 2012).

Biological target: the molecule itself
Assay: SEC; analytical gel filtration, Superdex 200 10/30, 200 µL of 4 mg/mL protein in 50 mM glycyl-glycine pH 7.6, 500 mM NaCl, 6°C; apparent masses estimated from protein standards; semiquantitative

B1: human full-length transketolase (enzyme, UniProt P29401 1-623, looked up)
chain: MESYHKPDQQKLQALKDTANRLRISSIQATTAAGSGHPTSCCSAAEIMAVLFFHTMRYKSQDPRNPHNDRFVLSKGHAAPILYAVWAEAGFLAEAELLNLRKISSDLDGHPVPKQAFTDVATGSLGQGLGAACGMAYTGKYFDKASYRVYCLLGDGELSEGSVWEAMAFASIYKLDNLVAILDINRLGQSDPAPLQHQMDIYQKRCEAFGWHAIIVDGHSVEELCKAFGQAKHQPTAIIAKTFKGRGITGVEDKESWHGKPLPKNMAEQIIQEIYSQIQSKKKILATPPQEDAPSVDIANIRMPSLPSYKVGDKIATRKAYGQALAKLGHASDRIIALDGDTKNSTFSEIFKKEHPDRFIECYIAEQNMVSIAVGCATRNRTVPFCSTFAAFFTRAFDQIRMAAISESNINLCGSHCGVSIGEDGPSQMALEDLAMFRSVPTSTVFYPSDGVATEKAVELAANTKGICFIRTSRPENAIIYNNNEDFQVGQAKVVLKSKDDQVTVIGAGVTLHEALAAAELLKKEKINIRVLDPFTIKPLDRKLILDSARATKGRILTVEDHYYEGGIGEAVSSAVVGEPGITVTHLAVNRVPRSGKPAELLKMFGIDRDAIAQAVRGLITKA
notes: human transketolase (TKT, EC 2.2.1.1), full length, residues 1-623, expressed from a synthetic codon-optimized tkt gene in pET28a; Expressed and purified by the same protocol as TKTΔ38; also called TKT; full-length TKT; source: E. coli BL21*, purified (Ni-NTA, desalting column)
- stoichiometry N: 2
